Assay results taken from the supplement of paper PMC9170038.

Tested on: MS2 coat protein
Test: apparent KD of MS2 coat protein; designed switch direction (-1 OFF switch, 1 ON switch): -1; higher = weaker reporter binding
In short: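 An oligonucleotide input, 200 uM small-molecule ligand, or no input was present during titration of SNAP-549-labelled MS2 coat protein, which was doubled from 0.7 or 1.5 nM to 3 µM. Designed RNA switches had been transcribed on Illumina chips by stalled E. coli RNA polymerase. Apparent KD per design is the median over clusters of curves fitted to normalised cluster fluorescence.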

[1] = Eterna round: R95, input ligand: FMN 200 uM
[2] = Eterna round: R95, input ligand: microRNA oligo, concentration not stated
[3] = Eterna round: R95, input ligand: none
[4] = input ligand: microRNA oligo, concentration not stated

| Sequence | apparent KD of MS2 coat protein [1] [nM] | apparent KD of MS2 coat protein [2] [nM] | apparent KD of MS2 coat protein [3] [nM] | apparent KD of MS2 coat protein (input ligand: FMN 200 uM) [nM] | apparent KD of MS2 coat protein (input ligand: none) [nM] | apparent KD of MS2 coat protein [4] [nM] |
| --- | --- | --- | --- | --- | --- | --- |
| GCACGGUAAGUGAGGAUAUACCUCUGGAUACAGAGGUAGAAGGCACAUGAGGAUCACCCAUGUCUAAACCGUGC [Fiskers BMX 4 - 82] (puzzle: Brourd's mod of Exclusion 4) | 24.9 | 18.6 | 18 | – | – | – |
| GCAUUUUGGUCGUCUUAUAACAUGAGGAUCACCCAUGUGUUGAGCCCAACUUAUUGUACUCAUGCUAUGGCCUGAUG [Eternabot (L2) Solution 27] (Eterna round: R97, puzzle: Sensor, turn-off variant 1) | – | – | – | 81.2 | 84.2 | – |
| CCAUCACAUGAGGAUCACCCAUGUUAGGAUAUCAUUAGCCUCGGAGCUAUAGCGAGGUUGAGAAGGGACAUGUC [Eternabot (L1) Solution 87] (Eterna round: R97, puzzle: Exclusion 1) | – | – | – | 19.9 | 22.7 | – |
| CAUUAUUAUCGAGGAUAUCCUAUUGUAAUACUGGGAGAAGGCGGACUCAACAUGAGGAUCACCCAUGUAAGACGGGUACUAGAU [Ex NG1 #22] (Eterna round: R96, puzzle: Exclusion NG 1) | – | – | – | 228 | 163 | 139 |
| ACAUGAGGAUCACCCAUGUUGUACUGGAUAGGGUGGUCCAGGUAGGAUAUGCAAACGCGUUGCGAGCAGAAGGACCACAGCCAG [Ceed] (Eterna round: R96, puzzle: Exclusion NG 3) | – | – | – | 49.8 | 35.3 | 29.4 |
| AAUAAUAGCGAGGAUAUCGUAUCGGAAACGAUACGAGAAGGCGUAACAUGAGGAUCACCCAUGUUCCUCAAUAA [Fiskers Ex 6 - 3] (Eterna round: R96, puzzle: Exclusion 6) | – | – | – | 354 | 41 | 39.8 |
| UGCAUGCUAGGAUAUACGGGACAUUAGGGUUCGUCGUAUGGACAUGAGGAUCACCCAUGUAGAAGGAGCGUGCU [Mod4 of JL-ex2-2.15 mat747 mod] (puzzle: Exclusion 2) | – | 18.7 | – | – | – | – |
| CAGUACUGAGGAUAUACAUGAGGAUCACCCAUGUGUGUGAGAAAAUUAAUAAAAGAAUGUAGAAGGCGGUGCUG [JR_Ex3_Sub041] (Eterna round: R97, puzzle: Exclusion 3) | – | – | – | 645 | 357 | – |
| AAAAGGCUAGGAUAUACCAGUGGGUGUAAGAACUCAAAUUUACAUGAGGAUCACCCAUGUAGAAGGAGUAAAAU [Dilaed] (puzzle: Exclusion 2) | – | 19.5 | – | – | – | – |
| UCAAGUUUUUUGUUUUUUAACAUGAGGAUCACCCAUGUAUUUUUAUAGUAUGUGUGAAUAAGAUCUCUUUGUCUUAU [JR_SV3TOV1_Sub098] (puzzle: Sensor v3, turn-off variant 1) | 46.6 | 149 | 49.5 | – | – | – |
| UUUAAUCGUGACAUGGGUGACAUGAGGAUCACCCAUGUCACAAGCUUCUCGCUCGUCUUAUAAUUAACCCAUGUCAC [LRO Sensor-off var1-13 mod of Stov1-13-A1 by Brourd] (Eterna round: R97, puzzle: Sensor, turn-off variant 1) | – | – | – | 17.3 | 18.7 | – |
| CCGGAAGUAGAGGAUAUAGGAGUCGAUAGACUCCUAGAAGGCUAUACAUGAGGAUCACCCAUGUGUCCUACCGG [Fiskers Ex 6 - 68] (puzzle: Exclusion 6) | – | 19.1 | – | – | – | – |
| GUAGAGUCAGGAUAUACAGAAGAAGCAUGGAAAACAUGGAUACAUGAGGAUCACCCAUGUAGAAGGGACUCUAC [ChP 11-04-2015 #2] (puzzle: Exclusion 2) | 83.6 | 33.2 | 41.5 | – | – | – |
| AAGACCUUUGUCAGGAUAUCAAGGCAAUUCGCCGGUGAGAAGGGACAUGAGGAUCACCCAUGUAAAGAAAAGAA [Rausedlave] (puzzle: Brourd's mod of Exclusion 4) | 69 | 20.1 | 19.7 | – | – | – |
| CUCCAUGCCCAGGCUUAGAACAUGAGGAUCACCCAUGUAGAUCCAGAAAAUUUGCUCGUCAGGCAAUUUAUAGAUUG [Eternabot (L1) Solution 9] (Eterna round: R97, puzzle: Sensor, turn-off variant 1) | – | – | – | 500 | 687 | – |
| GUUAGUUAAGGAUAUACUGGGAGCUGCGGCGUCUCGCCGCAACAUGAGGAUCACCCAUGUAGAAGGUGACCAUU [JL ViennaUCT Enbibi mod 5] (puzzle: Exclusion 2) | – | 221 | – | – | – | – |
| CACGCAUCAGGAUAUACAUGAGGAUCACCCAUGUGUUCCAGCUAGGAAACUAGCAAAUGUAGAAGGGAUGCGUG [Mat - Exclusion 3 - JL Mod - D7] (Eterna round: R97, puzzle: Exclusion 3) | – | – | – | 727 | 208 | – |
| AGCCUACAUGAGGAUCACCCAUGUCAGGAUAUCUCGCGGCGCGUCAAGUUCACGCCGCAGAGAAGGGACUCGGG [Ceusxeatis] (puzzle: Exclusion 1) | – | 37.6 | – | – | – | – |
| AAUAACAGAGGAUAUACUGUUUUAUGUGUUUGUUGUUUUGAACAUGAGGAUCACCCAUGUAGAAGGCUGAUUGA [JMF 79] (puzzle: Exclusion 2) | – | 38.7 | – | – | – | – |
| ACAUCACAUGAGGAUCACCCAUGUCAGGAUAUUCAGCGUAGCAUGCUACCUAACAUCAGAAGAAGGGACACGUA [First Design] (Eterna round: R97, puzzle: Exclusion 1) | – | – | – | 64.5 | 68.2 | – |
| GUCGUGCGGCAGUGCUGUACGAGUACAUGAGGAUCACCCAUGUAGGAUAUGGUUCGUUUUGCGUGCUAGAAGGGCGUGCGUUGA [Excl-NG3-LRO20] (Eterna round: R96, puzzle: Exclusion NG 3) | – | – | – | 20 | 22 | 14 |
| GAAAAGAAAGGAUAUACAGGGAAAUGAACCGCACGUAAACCACAUGAGGAUCACCCAUGUAGAAGGUUCAGUGC [Edenusra] (puzzle: Exclusion 2) | – | 10.6 | – | – | – | – |
| GAAAAGGUAGGAUAUACGUAAAAAAAGGGUAGAAAAAAAACACAUGAGGAUCACCCAUGUAGAAGGACCAAAAG [salish99_ex2_r3_087] (puzzle: Exclusion 2) | 88.3 | 24.7 | 20.6 | – | – | – |
| CCAACCAGAGGAUAUGCGCAUAGAUCAGACUUUGUUUCUUAACAUGAGGAUCACCCAUGUAGAAGGCUGUAACC [Ex2 #76] (Eterna round: R97, puzzle: Exclusion 2) | – | – | – | 21.6 | 20 | – |
| CAUGUGUUAGGAUAUGCACAGAUCUCCGAAAGGAGAUCUGUGCAGAAGGAACAUGAGGAUCACCCAUGUUGAUG [Mod of Brourd 16 - Jieux - Exclusion 4] (Eterna round: R97, puzzle: Exclusion 4) | – | – | – | 136 | 37.3 | – |
| GGUAACAUGAGGAUCACCCAUGUGAUACGUUACAUAUAAACCGAGGAUAUACCCUCAGAACGAGGGUAGAAGGUGGGACGACAC [Eternabot solution 8] (Eterna round: R96, puzzle: Exclusion NG 3) | – | – | – | 95.8 | 102 | 51.6 |
